Measurements as given in patent US20230416825A1.
Read-outs that look alike come from different tables or passages of the source.

How the values were obtained:
[1] = target: Recombinant human KLK5 (Genentech) (human) (UniProt Q9Y337); experiment: cell-based or functional assay
[2] = target: Recombinant human KLK5 (Genentech) (human) (UniProt Q9Y337); experiment: cell-based or functional assay; remark: listed apart in the source

UniProt Q9Y337, sequence (Q9Y337 67-293 limits assumed, form in doubt): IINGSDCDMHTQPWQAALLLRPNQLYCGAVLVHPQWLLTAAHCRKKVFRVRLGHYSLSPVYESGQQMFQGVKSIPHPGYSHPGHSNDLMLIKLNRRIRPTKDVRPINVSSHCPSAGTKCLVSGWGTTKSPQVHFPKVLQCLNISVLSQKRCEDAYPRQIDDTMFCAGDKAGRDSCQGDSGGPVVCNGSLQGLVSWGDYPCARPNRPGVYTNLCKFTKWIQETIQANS

| Molecule | IC50, LC/MS assay of KLK5 (0.5 nM) cleavage of pro-KLK1 [1] | IC50, LC/MS assay of KLK5 (5 nM) cleavage of pro-KLK7 (15 nM) [1] | direct KLK5 activity assay at 20, 10, 5 and 2.5 nM KLK5: reduction in cleavage of the fluorescent peptide substrate [1] | maximum KLK5 inhibition, LC/MS assay of KLK5 (0.5 nM) cleavage of pro-KLK1 [1] | IC50, LC/MS assay of KLK5 (0.5 nM) cleavage of pro-KLK1 [2] | IC50, LC/MS assay of KLK5 (5 nM) cleavage of pro-KLK7 (15 nM) [2] |
| --- | --- | --- | --- | --- | --- | --- |
| mAb1108 (Monoclonal Mouse IgG2b Clone #193318, R & D Systems, Minneapolis, MN) (antibody) | 340 pM | 1860 pM | 30% | 40% |  |  |
| SPINK9 (I20-C86.C22S.H48R.M49E)-Fc (Fc fusion, not shown: a dimerising Fc or GST) IESAKQTKQMVDCSHYKKLPPGQQRFCHREYDPICGSDGKTYKNDCFFCSKVKKTDGTLKFVHFGKC |  |  |  |  | 580 pM | 1130 pM |
